The test concerns the target T1, NDC80 (NDC80 CT antigen; peptide NDC80-330) peptide on HLA-A*02:01 (human).
T1 peptide: GLNEEIARV
The experiment in a line: multimer staining.

B1: NDC80-330 specific TCR (TCR, V domains shown)
Valpha: EDQVTQSPEALRLQEGESSSLNCSYTVSGLRGLFWYRQDPGKGPEFLFTLYSAGEEKEKERLKATLTKKESFLHITAPKPEDSATYLCAVQAGSSASKIIFGSGTRLSIRP
Vbeta: DAGVTQSPTHLIKTRGQQVTLRCSPKSGHDTVSWYQQALGQGPQFIFQYYEEEERQRGNFPDRFSGHQFPNYSSELNVNALLLGDSALYLCASSLSGGIYEQYFGPGTRLTVT
As to B1, the binding result was “recognises”.

Values taken from US20250289866A1 (published 2025).
